In PMC5460178 (NPJ Biofilms and Microbiomes, 2017):

Target: the molecule itself
Assay: SEC

B1: GroEL-P (His6-GroEL of B. anthracis co-expressed with PrkCc in E. coli, phosphorylated) (natural protein)
chain: MAKDIKFSEEARRSMLRGVDTLANAVKVTLGPKGRNVVLEKKFGSPLITNDGVTIAKEIELEDAFENMGAKLVAEVASKTNDVAGDGTTTATVLAQAMIREGLKNVTAGANPMGLRKGIEKAVVAAVEELKTISKPIEGKSSIAQVAAISAADEEVGQLIAEAMERVGNDGVITLEESKGFTTELDVVEGMQFDRGYASPYMITDSDKMEAVLDNPYILITDKKISNIQEILPVLEQVVQQGKPLLIIAEDVEGEALATLVVNKLRGTFNVVAVKAPGFGDRRKAMLEDIAILTGGEVITEELGRDLKSATVESLGRAGKVVVTKENTTVVEGVGSTEQIEARIGQIRAQLEETTSEFDREKLQERLAKLVGGVAVIKVGAATETELKERKLRIEDALNSTRAAVEEGIVAGGGTSLMNVYTKVASIVAEGDEATGINIVLRALEEPVRQIAINAGLEGSVVVERLKGEKVGVGFNAATGEWVNMLETGIVDPAKVTRSALQNAASVAAMFLTTEAVVADKPEPNAPAMPDMGGMGMGGMGGMM
stoichiometry N: 14
